# Measured values published in the DeepSol protein solubility set.
# Experiment: soluble on expression in E. coli; label from the status in PepcDB or PDB records
row,Sequence,soluble on expression in E. coli
1,MSLDEVECSADHIARPILILKETRRLPWATGYAEVINAGKSTHNEDQASCEVLTVKKKAGAVTSTPNRNSSKRRSSLPNGEGLQLKENSESEGVSCHYWSLFDGHAGSGAAVVASRLLQHHITEQLQDIVDILKNSAVLPPTCLGEEPENTPANSRTLTRAASLRGGVGAPGSPSTPPTRFFTEKKIPHECLVIGALESAFKEMDLQIERERSSYNISGGCTALIVICLLGKLYVANAGDSRAIIIRNGEIIPMSSEFTPETERQRLQYLAFMQPHLLGNEFTHLEFPRRVQRKELGKKMLYRDFNMTGWAYKTIEDEDLKFPLIYGEGKKARVMATIGVTRGLGDHDLKVHDSNIYIKPFLSSAPEVRIYDLSKYDHGSDDVLILATDGLWDVLSNEEVAEAITQFLPNCDPDDPHRYTLAAQDLVMRARGVLKDRGWRISNDRLGSGDDISVYVIPLIHGNKLSEGHHHHHH,soluble
2,MSLTMPAESAATVRGRRYPADPEWFCDFRTFPVQGLGPEVGVHRRDPSSVLTVDGRYHVWYTRSTGETDGFGTGDPMAKVFPWDWSEIWHATSDDGATWVEQGRALGRGEPGSYDDRSVFTPEVLEHQGWFYLVYQVIRSPYALRSFESIAMAKAPSPDGPWVRSPQPILRPQADGEWAGEEDNRLSVVSQGSFDSHKVHDPILVPFQGRFFLYYKGEQMGEGFSAGGRTTRWGLAIADDIEGPYHRCPANPVTNSGHETCVWRYGDGIAAMLTTDGPERNTIQFAPDGINFEIMAHIANPPVATGPLRLPDHAVAPLDGVRWGLCHDVTASWHYIQGFAADERQKMFYTRGLSPETAESAEADALPAPHEKEGHHHHHH,soluble
3,MAFEGLADRLQQTMQKIRGKGKVSEADVKEMMREVRLALLEADVNFKVVKDFVKRVSERAVGQDVMKSLTPGQQVIKVVQEELTELMGGEQSKIAIANKPPTVIMMVGLQGAGKTTTTGKLANLLRKKHNRKPMLVAADIYRPAAIKQLETLGKQLDMPVFSLGDQVSPVEIAKQAIAKAKEDHHDYVLIDTAGHLHIDEELMDELAKVKEVAKPDEIFLVVDAMTGQDAVNVAQSFHEQLGLTGVVLTKLDGDTRGGAALSIKAVTNTPIKFAGMGEKLDALEAFHPERMASRILGMGDVLTLIEKAQATVDEEKAKELEQKMRTLSFTLDDFLEQLGQVRQLGPLDELLGMLPGANKIKGLKNAQVDEKQIGHIEAIIRSMTKLEREQPEIINASRKKRIAKGSGTTVQEINRLIKQFDDMKKMMKTMTGMQKGKKKGLGGLKFPFM,not soluble
4,MKLWAIYFEPEDWVGFRETRRFSFSDRVESVFPSSFPFYGAVRTALLMKNQKFDPGDVERAGDVRMFGPFVFENTPEGRKHYFPLPRNIYKTDSGYRVTPIVEIDGVYLPWKPEYKMDSKESTSGGLIELSDLELLRSNTQGVCKFDLVSAEKIFKKETHIGVAFEENRKKVKERMIYSISYYRFYDGGFFMFTDDERTVELVSKLDGVFLGMKSKWSAVEVEELNTTAFDPPDYKNVAVALITPAVFDGGGMPKDKTILGKRVLTTAGIRKQVVSGWDLRENKPKKIYHAVSPGAVYYLEGKVNGHVLNESKFTDFGFGRCIFMKYEKL,soluble
5,MRRFKQQLAGRPAAAEIPLKRWLGVASHRCPAGPKRRRHDVMTCPSTQLRLAPITTGLVRRNPRILLSGPHQPTLVRYLEGWPKRWNGSRTFLIQFAQDGKDLARFPSDAFDFAVVQAPEAEDLDLVVRQLIRVARQGLITRRILR,not soluble
6,MSLTRAAVNPKPFVVPELKQWTGKDGNFTPGKDTRIVCTSQNPELLRIARMFADDYQQMFGQTLSVAQGKATSGDFVLSLSADKKLGEEGYAIKITDRVAISAPTPTGLYWSTRTLLQLAEQNQERSLPQGTIRDYPDYPLRGFMIDCGRKFIPMAYLQDLVKIMAYYKMNTLQVHLNDNGFKQYFEHNWDKTYAAFRLESETYPGLTARDGSYSKKEFIDFQKQAASNFVEIIPEIDVPAHSLALTHYKPEIGSKEYGMDHLDLFKPETYEFVDALFKEYLEGDNPVFVGKRVHIGTDEYSNAKKDVVEKFRAFTDHYIRFVEGFGKQAVVWGALSHAKGDTPVKSENVVMNAWYNGYADPATMIKDGYQLISIPDGLVYIVPKAGYYYDYLNEPYLYKEWTPAHIGKAVFDEKHPSILGGMFAIWNDHVGNGISVKDIHHRIFSPLQTLSVKMWTGAQTGIPYETFNEKRALLSEAPGVNQLARIGKKPELVYERSTVAPGSTSDYPEIGYNYTVSFDITGAKESEGTELFRSPNAVFYLSDPIRGEGHHHHHH,soluble
7,MGSDKIHHHHHHMSQTTVVNGVNVDQLMATIEQIKAKPEIAQFKFRATNQWMGGTHNQATIKDFYGACAEDDTRKPMVFDLDEPPVLLGENRGANPVEYLLVALSGCLTTSLVAHAAARGIALRGVKSRYEGDIDLRGFLGLSEEVPVGYREIRVFFSIDADLTDGQKEELIRMAQKYSPVYNTVAKPVPVAVLLDRG,not soluble
8,MISIIYLFIPILLASAVPTSDVLSTRIKALEQVFIVFYCKPSCRFNETQLNSVTIKSFPKCKEVCGIIFIDSETDLTVEQMKKAFEKMRTLKGGFNIENTSLTSLSVFTADKEKGNFNVVGVGNSAAAMTSTKLLAERLKQKNGVYIRNNSQLNDPSVLYDLYLYRDRGIEACDIRIENNPKLEFSCDGGFLHMYNELIVRGNLKDCGCDGEKVNVSNVKEYSKCKTLDSGLNLVNINATFDYDSFLNVTMIRGSIAIRNTNLQSLSFLQNLQTIEYNSDIASVALNVQDNPEMIRLGLPILTKVIDTVEQTSMIQYSTYNKRQYFNFENLHPDFCVTITEIVALLNLGISTENIEAKLCKDPGPLDASFYCTFESMSKLSDTCMYILGDLLIDHEDEKYVSKLGVLQFLFGTLTIRNTNLTDLNFLDQMTYIGALNGNVTYFPVIQIYSNPNLRNVGLNGIMNIITKGNRTAIIQDNHPDLFKSTPCQLFGAYFSNPAMENRVNLTYIGSNCGERVHITSSQSGRISIGLSFSLFVLFWSFKSN,not soluble
9,MSLAADKVVVMLNWYVYGEHAPFYYGKAKGIYAAEGIDLEIQEGRGSAATTQAVAAKTADFGYVDVPTMMRAAIKGAPVVATGVLLQTSPMSAMGFVDKNIRKPEDIKGKTVAITPADSMTQIWPLFLKKTGLKESDFQTVAGDGQTKLNAVINGQADLLLGYVMDQSMKIKDATGKDVYPIKFADYGINMVSSGIIANSDYVKANADLVRRFMSATTKAVEAAEKEPKAAAQSILDANPKGGKIDTLTQGFELTIPLYRTAATKSKRPFQVTEQNMTETVNLLVEYGGLDAKAKDNPKAFYTNDYLPKSGEGHHHHHH,soluble
10,AFSGTWQVYAQENYEEFLKALALPEDLIKMARDIKPIVEIQQKGDDFVVTSKTPRQTVTNSFTLGKEADITTMDGKKLKCTVHLANGKLVTKSEKFSHEQEVKGNEMVETITFGGVTLIRRSKRV,soluble
11,PVTETVDGQGQAWRHHNGFDFAVIKELKTAASQYGATAPYTLAIVESVADNWLTPTDWNTLVRAVLSGGDHLLWKSEFFENCRDTAKRNQQAGNGWDFDMLTGSGNYSSTDAQMQYDPGLFAQIQAAATKAWRKLPVKGD,soluble
12,MAHHHHHHMKRAAKGEVVFDEDIRRLCDKGVNNLPGWSLAAAEVKAAVRNSTKHFLDAAAEEARNPTTTSAPEKLEGCYKSVHNARRGHAVELPDGVERTKTGTGMGMHEGRPEQSWSYKKADDAIEKNDGVQQFGAAPPVLMVLTLDKGWPYSWNRIQDLPKDVFVNCEVDRVWQTVKGDVTAWFSPHGGTDFTPKQRVLIGTPGIGKSMAAGSYLLYQLLHCDAKKLQVVVHRFGGGDAYVSDKITRAVTKYSDEDMCISELRRLRGYGRNVYIIYDVAKEGTPPPRHFAPTSGWGMIVVSFPKVTNYDEWEKQLHAARIIMNCPDESDVRAMCIWKEYNGQVEEEADYWKKVKDRMDKVGPILRFIFDN,not soluble
13,MMGSSSQELQTALTDVSKTCHHLWEENKDLQGRFVNELGELQRLQMVIAQLEQQQRLENVFTVKQQMTELQKRAATLYEHLTQKRNDIVIKLNDGTNFATMLQTQLIGEKLFSWKNAQKLAQIGMPFDNREQLLDEIQIEFEFLADQNWQLNMFSCWMLDLLRRAPQLNDGLAQATIGKLTAITEQLNKLLFMLVSQSFIVSVQPEPVLKTQHKFVTEVRLLIGDKLGIRQHLVNTNVSVKIIAEDEAKQLSVDYDAHKEIRNNKTVGTISNDFEKLTMNERGHLAAKFNNSKLTRIAHRKPPPKGASDLKCAASMQAATDQKYALLFFITPFQMGNLSKEEQFDVWTLSLPIMVTVHGSQDCDAQVAILWHRAFASISRNPNTTDVTAVTWDNLAIMLRNKFSLFTGARRPLSDSDLAYLSEKMLMPNVADQKPITFHRFAKQAMRDDLPFSFWEWFFSIMQLIKQKLLKFWDEGWCIGFISKNDASQSMMMCQHSSFLLRFSDSQTGAVSIGFVCEEADGQKIPFHLAPFTIKDLDQLSLASRIASCPQLKDIRYMYPAIDKEEMLRFFESEERHRVGGGDSPTGYIQSEIVMVAKTNGNFRRMSNAPSMFGADSPSPLSVQSKLDWSPGEVHQNHMMEMSDELGQILTVSDMSGDVETLLGPAFKNNITNYNPHDGNHQHNLHFVDMSQQGMMQQHHNQFYPS,not soluble
14,MAHHHHHHMNGRYVPQEVLGTGTYGRVLRCNDVLTGRQVAVKVSQRDAAYRRSAMNEIRVLQLLSHTDNALKMFDFFEDSGHLCIASELLCTDFYEVLRKNGFQPLSLDTVRIVGERVLRALAELHKAGYMHCDIKPANVMLRFNETDRSNLSDFTKTCLIDFGAARQFHENTYYDVQSLWYRAPEVMLGLPYTSHIDSWSVGCLLFELYTGKPLFAGENPREQMTSIMCTVGMPPMEAFSSGANVEKLQLPCLAMDVNAEANLRNLIASYRCNNTGFNHSYQLVGEESAFVNLLCALLQPDVRWRLSCTDALHHAFFTSRCLYHGNIVSANFSVFSPSSNGLQSSIDSNFGAVFSSTGNDARGFGGFEHLVPQQTQPHPNPHPQPRLKSESSPILPANSNSVPLVGLVGSPPGMVLPGTRPPASSQVNIPSSRVVLQNVMYPTPPMKIIQPVPFNTQQSQKALQQPQRVSANMLPVMVSAIGNPYSFPPCVRPECQVQNWEPVIFQPQQQIPPEVTPMFQCKILPGGCQYNYQGGADPSFYGASIKSGLHSAVYVPS,not soluble
15,AIADEVKECLRDFPKEARELYLNDAVPYLDEPLSPLQFYRDWIGPNKPCIIRNAFNDWPALSKWNPTYLREKVGSKVISVAVTPNGFADAVNGNRFVMPEERQMSFSSLLDIVEGKIKSSAVFYVQKQCSNLMEEIPELTGDVQTHIPWMSEALGKLPDAVNFWLGEESAVTSMHKDHYENLYCVISGQKEFILLPPTDRPFIPYELYQPATYRQKDDGTFEIVDEENSPKVPWIPLDPLKPDFERFPSYRHAKALHCTVKAGEMLYLPSLWFHHVRQSHGCIAVNFWYDMEYDIKYNYFQLVEALTNAVGSL,soluble
16,GPGSMCSGLTAFLVDFVQVVPGQTQTSFQTAAPEDSDPGVYDPNTRSWSGTDGLRYRVPLFPIPSERHTREKVRHVKILMDNCRHICISDELPATKEEKRFWASYRFIQYQLFLAPACVVTPPVYVFFKMFHDKLPHFLRGRTMPILTGLAVAEMWAEATYPSHQLLSMALRAKTPMGDAARAEWTRLQPIDIPFYIFSSYQFQQLFYAVPEEYLFGGDLASLCG,soluble
